This note sets out measurements from article PMC6395948 (Molecular Cell, 2019).

Series [1] concerns the target T1, McbD (Escherichia coli, UniProt P23186 1-396).
T1 sequence: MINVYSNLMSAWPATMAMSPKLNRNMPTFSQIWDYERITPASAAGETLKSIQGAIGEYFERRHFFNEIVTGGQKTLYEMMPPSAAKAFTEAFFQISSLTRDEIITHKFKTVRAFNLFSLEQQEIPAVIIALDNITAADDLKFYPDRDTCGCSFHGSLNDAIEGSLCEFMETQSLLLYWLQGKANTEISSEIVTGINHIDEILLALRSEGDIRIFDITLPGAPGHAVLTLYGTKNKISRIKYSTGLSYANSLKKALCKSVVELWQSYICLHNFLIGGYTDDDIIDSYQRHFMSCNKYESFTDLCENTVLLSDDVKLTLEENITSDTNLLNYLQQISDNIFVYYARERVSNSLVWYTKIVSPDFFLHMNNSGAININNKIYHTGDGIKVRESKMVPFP
In words: crystal structure.

Series [2] deals with the molecule itself. In words: crystal structure.

B1: McbB (natural protein, Escherichia coli)
chain: MVLPDIKKGKDMINILPFEIISRNTKTLLITYISSVDITHEGMKKVLESLRSKQGIISEYLLDKLLDESLIDKDKGKEFLITTGVINKTKTSPLWVNSVIISDVPHLFSNAREQWKCDGVFVSHIIDIKDNNINVSDSTLIWLHLENYHSDIVKRIYSKFESNPGVAFIQSYYLKESFRIDGVYSPDLGTPCHFCHIERWLSREEKSFRRNEMSWANLLQLLKKYQMTLPALALGESERGFSYHLIKRRLQELTGTSLVKSHVDNFMSSVSADLITCILCKEPVIHWQACSCLER
The stoichiometry N is a count of units in the complex or per binding partner. B1: in series [1], the binding result is “binds”. Moreover, the “stoichiometry N” value in series [2] worked out at 2.
